In patent US20080131910A1 (LUDWIG INSTITUTE FOR CANCER RESEARCH, published 2008):

Legend:
[1] = biological target: T1, ALK-5 (activin receptor like kinase 5), human TGF-β type I receptor (human, UniProt P36897 25-503); experiment: affinity cross-linking followed by immunoprecipitation, COS-1 cells co-transfected with ActR-II and the ALK
T1 construct: Expressed from cDNA in COS-1 cells and PAE cells (PAE/TβR-I), or endogenous in human cell lines (AG1518, A549, HSC-2, HUVEC); also called hALK-5; clone EMBLA
T1 sequence: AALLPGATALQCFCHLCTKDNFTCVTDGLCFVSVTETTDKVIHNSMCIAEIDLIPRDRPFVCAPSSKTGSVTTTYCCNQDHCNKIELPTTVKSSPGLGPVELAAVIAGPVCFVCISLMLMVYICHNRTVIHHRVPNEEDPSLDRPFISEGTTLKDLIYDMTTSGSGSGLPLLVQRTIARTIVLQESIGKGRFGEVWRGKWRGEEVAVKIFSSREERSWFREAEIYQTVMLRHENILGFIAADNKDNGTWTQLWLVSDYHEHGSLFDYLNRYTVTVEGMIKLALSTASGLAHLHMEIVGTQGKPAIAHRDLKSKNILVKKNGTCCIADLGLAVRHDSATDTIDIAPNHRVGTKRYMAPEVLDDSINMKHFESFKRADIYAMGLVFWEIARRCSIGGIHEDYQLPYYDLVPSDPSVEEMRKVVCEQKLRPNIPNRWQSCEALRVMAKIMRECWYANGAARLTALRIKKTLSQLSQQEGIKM

[2] = biological target: T2, ALK-6 (activin receptor like kinase 6), mouse (mouse, UniProt P36898 14-502); experiment: as above
T2 construct: Expressed from cDNA in COS-1 cells; also called mALK-6; clone ME-6
T2 sequence (P36898 14-502 limits assumed): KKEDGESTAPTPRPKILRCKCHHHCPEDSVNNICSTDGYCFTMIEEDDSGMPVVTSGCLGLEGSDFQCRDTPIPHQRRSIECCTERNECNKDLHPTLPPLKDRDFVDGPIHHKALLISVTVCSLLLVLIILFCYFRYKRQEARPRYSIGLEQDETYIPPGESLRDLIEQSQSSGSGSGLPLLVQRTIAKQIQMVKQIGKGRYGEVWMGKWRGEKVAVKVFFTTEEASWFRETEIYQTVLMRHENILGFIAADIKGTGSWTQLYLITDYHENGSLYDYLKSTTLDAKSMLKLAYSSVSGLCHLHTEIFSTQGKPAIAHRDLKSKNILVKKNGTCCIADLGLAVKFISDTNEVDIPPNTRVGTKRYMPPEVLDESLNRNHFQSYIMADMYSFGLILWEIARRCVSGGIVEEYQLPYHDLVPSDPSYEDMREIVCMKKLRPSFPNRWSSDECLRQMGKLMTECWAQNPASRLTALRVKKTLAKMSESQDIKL

binding result [1]: binds
binding result [2]: binds
B1: Recombinant human activin A (ligand, UniProt P08476 311-426, looked up)
chain: GLECDGKVNICCKKQFFVSFKDIGWNDWIIAPSGYHANYCEGECPSHIAGTSGSSLSFHSTVINHYRMRGHSPFANLKSCCVPTKLRPMSMLYYDDGQNIIKKDIQNMIVEECGCS
modifications: 125I-iodinated (chloramine T method)
